Source: patent US20030157533A1, “Nucleic acid labeling by Thermoanaerobacter thermohydrosulfuricus DNA polymerase I variants” (priority 2001, published 2003)

Columns and labels:
Assay type in all cases: biochemical
[1] = tested on: human skeletal muscle mRNA; assay: cDNA labeling using Cy3/Cy5-dCTP over a wide reaction temperature range, microarray (FIGS. 14a and b); settings: reaction temperatures 37, 42, 45, 50, 55, 60 and 65 degrees; normalization factor of 2
Description: A 20 μl reaction Cy3 or Cy5 reaction had 1 μg of human skeletal muscle mRNA, oligo dT(25) and random nonamer primers and TtsFYDR polymerase enzyme in 1×reaction buffer (50 mM Tris, pH 8.0, 1 mM DDT, 40 mM KC, 100 uM dA,G and TTP and 50 um each of CTP and Cy3-dCTP or Cy5-dCTP depending on the reaction). Control mRNAs (APBiotech Inc.) of known sequence compositions were included in various concentrations to serve as dynamic range and gene expression ratio controls. Tts reactions were carried out at temperatures from 37, 42, 45, 50, 55, 60 and 65 degrees. For Superscript II, cDNA synthesis reactions were carried out at 42 C. (Life Technologies). Template RNA was hydrolyzed by alkali treatment and neutralized with HEPES.
Probes were purified using MultiScreen filters (Millipore) and quantified by spectrophotometry. Glass slides containing human cDNA gene targets were hybridized with equal amounts (30 pmol each) of Cy3 and Cy5 labeled cDNA probes. Slides were scanned using a GenePix® (Axon) scanner and quantified using ImageQuant software. A normalization factor of 2 (due to differences in the excitation efficiencies of Cy3 and Cy5) was applied to the observed ratio of raw flourescence signal. The figure illustrates precise determination of gene expression differences in Cy3 and Cy5 reactions.

[2] = tested on: Globin mRNA template annealed to P-33 labeled primer; assay: Single nucleotide incorporation of Cy3.5-dCTP or dCTP on RNA template (reverse transcriptase reaction, FIG. 7)
Description: The experiment shown in FIG. 7 investigates the relative efficiencies of incorporation of dye-CTP (Cy3.5-dCTP) and dCTP. Three enzyme preparations ΔTts, ΔTts F412Y, ΔTtsF412YD426R were analyzed in this experiment.
(§1) Optimized 1×buffer compositions for Reverse Transcriptase (RNA dependent DNA Polymerase) and DNA Polymerase (DNA dependent DNA polymerase) reactions for all variants of Tts Pol I are as follows. Tris, pH 8.0 (50 mM), KCl (40 mM), MgCl2 (3 mM), DTT (1 mM), DNA or RNA template (as needed), primer (5 to 50 femto mols), enzyme 0.5 to 1 units, dNTP or dNTP analog (varying concentrations as needed). In standard synthesis reactions, when full-length synthesis is monitored, 50 uM of all 4 dNTPs are included. Typical reaction volume is 10 ul. Reaction temperature was kept between 37-60 C. depending on the experimental needs. Reaction time was limited to 10 minutes for single nucleotide incorporation studies. Time was varied as needed for the purpose of the experiments, sometimes up to 1 hour if longer extensions are monitored.
The experiment shown in FIG. 7 investigates the relative efficiencies of incorporation of dye-CTP (Cy3.5-dCTP) and dCTP. Three enzyme preparations ΔTts, ΔTtsFY, ΔTtsF412YD426R were analyzed in this experiment.
In FIG. 7, Globin mRNA served as the template. A 5′ P-33 labeled primer (DNA 25-mer) was annealed to the template. Reactions were performed with varying concentrations of either Cy3.5-dCTP or dCTP alone. Inclusion of only one dNTP allowed incorporation of the next correct nucleotide alone. The sequence of the template-primer that allowed for the examination of single nucleotide “C” incorporation is shown below.
Lanes 1,2,3 and 4 contain 20, 2, 0.2, and 0.02 uM of dNTP or dye-dNTP. Lane with no label has no enzyme, to show the integrity of the starting P-33 labeled primer. Quantification of the single nucleotide extension product is one way to tell if DR change to in the enzyme led to any consequence. “P” indicates a radio labeled primer. “P+1” represents the elongated product by a single nucleotide or nucleotide analog. P+1 migrates slowly with the dye-dNTP conjugate. Note that the migration of Cy3.5 dCMP containing bands travel slowly on the gel compared to dCTP extended products. […] Essentially, incorporation is achieved at lower concentrations (less than 10 times) of dye-dNTP compared to that of the wild type polymerase. It is evident that the DR enzyme was able to incorporate Cy3.5 dCTP at concentrations as low as 0.2 uM (Cy3.5 dCTP) or even lower. […] In this experiment the template-primer is a mRNA annealed to radio labeled primer. Extension is monitored qualitatively as P+1 for the natural nucleotides and P+1* for dye labeled nucleotide. This is a promising first observation for potential use in microarray applications for cDNA probe labeling.

[3] = tested on: human skeletal muscle mRNA; assay: cDNA labeling using Cy3 and Cy5-dUTP, microarray (FIG. 10); settings: Cy3-dUTP or Cy5-dUTP, 50 degrees C.
Description: (§2) A typical 20 μl reaction Cy3 or Cy5 reaction had 1 μg of human skeletal muscle mRNA, oligo dT(25) and random nonamer primers and TtsFYDR polymerase enzyme in 1×reaction buffer (50 mM Tris, pH 8.0, 1 mM DDT, 40 mM KC, 100 uM dA,G and CTP and 50 um each of TTP and Cy3-dUTP or Cy5-dUTP depending on the reaction). Control mRNAs (APBiotech Inc.) of known sequence compositions were included in various concentrations to serve as dynamic range and gene expression ratio controls. Tts reactions were carried out at temperatures from 50 degrees C. Template RNA was hydrolyzed by alkali treatment and neutralized with HEPES.
(§3) Probes were purified using MultiScreen filters (Millipore) and quantified by spectrophotometry. Glass slides containing human cDNA gene targets were hybridized with equal amounts (30 pmol each) of Cy3 and Cy5 labeled cDNA probes. Slides were scanned using a GenePix® (Axon) scanner and quantified using ImageQuant software.

[4] = tested on: defined DNA template-DNA primer; assay: Single nucleotide incorporation of dye-dCTP during DNA dependent DNA synthesis (FIG. 13)
Description: as §1
Primer extension was monitored using a defined DNA template-DNA primer.
In this experiment the relative efficiencies of incorporation of dye-CTP (Cy3.5-dCTP) was investigated. Three enzyme preparations were tested ΔTts, ΔTtsF412Y, and ΔTtsF412YD426R
Defined DNA shown below served as the template. A P-33 labeled primer (DNA 25 mer) was annealed to the template. Reactions were performed with varying concentrations of either Cy3.5-dCTP or dCTP alone. Inclusion of only one dNTP allowed incorporation of the next correct nucleotide alone. The sequence of the template-primer that allowed for the examination of single nucleotide “C” incorporation is shown below.
Lanes 1, 2, 3, 4 and 5 contain 20, 2, 0.2, 0.02 and 0 uM dye-dCTP. Lane 5 has no enzyme, to show the integrity of the starting p-33 labeled primer. Quantification of the single nucleotide extension product is one way to tell if DR change in the enzyme led to any consequence. “P” indicates a radio labeled primer. “P+1” represents the elongated product by a single nucleotide or nucleotide analog. P+1 migrates slowly with the dye-dNTP conjugate. Note that the migration of Cy3.5-dCTP containing band travel slowly on the gel compared to dCMP extended products. […] P+1 product is achieved between 10-100 fold less concentration of dye-dCTP with the enzyme having the DR change. Essentially, incorporation is achieved at a much lower concentration of dye-dNMP compared to the wild type enzyme. It is evident that the DR enzyme was able to incorporate Cy3.5-dCTP at concentrations as low as 0.2 uM or even lower.

[5] = tested on: human skeletal muscle mRNA; assay: cDNA labeling using Cy3 and Cy5-dCTP, microarray (FIG. 9); settings: Cy3-dCTP or Cy5-dCTP, 50 degrees C.
Description: as §2, with “TTP” for “CTP”, “CTP” for “TTP”, “Cy3-dCTP” for “Cy3-dUTP”, “Cy5-dCTP” for “Cy5-dUTP”
as §3

B1: ΔTtsF412YD426R: exonuclease deficient truncated Tts DNA polymerase I with F412Y and D426R changes (SEQ ID No. 7) (protein, listed as Thermoanaerobacter thermohydrosulfuricus)
chain: MYKFLIIDGSSLMYRAYYALPMLTTSEGLPTNALYGFTMMLIKLIEEEKPDYIAIAFDKKAPTFRHKEYQDYKATRQAMPEELAEQVDYLKEIIDGFNIKTLELEGYEADDIIGTISKLAEEKGMEVLVVTGDRDALQLVSDKVKIKISKKGITQMEEFDEKAILERYGITPQQFIDLKGLMGDKSDNIPGVPNIGEKTAIKLLKDFGTIENLIQNLSQLKGKIKENIENNKELAIMSKRLATIKRDIPIEIDFEEYKVKKFNEEKLLELFNKLEFFSLIDNIKKESSIEIVDNHKVEKWSKVDIKELVTLLQDNRNIAFYPLIYEGEIKKIAFSFGKDTVYIDVFQTEDLKEIFEKEDFEFTTHEIKDFLVRLSYKGIECKSKYIDTAVMAYLLNPSESNYDLDRVLKKYLKVDVPSYEGIFGKGRDKKKIEEIDENILADYICSRCVYLFDLKEKLMNFIEEMDMKKLLLEIEMPLVEVLKSMEVSGFTLDKEVLKELSQKIDDRIGEILDKIYKEAGYQFNVNSPKQLSEFLFEKLNLPVIKKTKTGYSTDSEVLEQLVPYNDIVSDIIEYRQLTKLKSTYIDGFLPLMDENNRVHSNFKQMVTATGRISSTEPNLQNIPIREEFGRQIRRAFIPRSRDGYIVSADYSQIELRVLAHVSGDEKLIESFMNNEDIHLRTASEVFKVPMEKVTPEMRRAAKAVNYGIIYGISDYGLSRRLKISRKEAKEYINNYFERYKGVKDYIEKIVRFAKENGYVTTIMNRRRYIPEINSRNFTQRSQAERLAMNAPIQGSAADIIKMAMVKVYNDLKKLKLKSKLILQVHDELVVDTYKDEVDIIKKILKENMENVVQLKVPLVVEIGVGPNWFLAK
- normalized observed ratios of Cy3/Cy5 signal versus target ratios [1]: very close to the target ratios
- concentration of Cy3.5 dCTP at which the enzyme was able to incorporate ([2]; 10 min single nucleotide incorporation): ≤ 0.2 µM
- fold less concentration of dCTP at which P+1 product is achieved ([2]; dCTP, compared with enzymes without the DR change): 10-100 fold
- lower concentration of dye-dNTP at which incorporation is achieved compared to wild type polymerase ([2]; dye-CTP (Cy3.5-dCTP)): less than 10 times
- incorporation of Cy3 versus Cy5 in cDNA probes [3]: near even incorporation of Cy3 and Cy5
- concentration of Cy3.5-dCTP at which the enzyme was able to incorporate [4]: ≤ 0.2 µM
- fold less concentration of dye-dCTP at which P+1 product is achieved ([4]; dye-dCTP, compared with enzymes without the DR change): 10-100 fold
- incorporation of Cy3 versus Cy5 in cDNA probes [5]: near even incorporation of Cy3 and Cy5
